The assay has as its target T1, full-length His-tagged SARS-CoV-2 spike protein (wild-type) (SARS-CoV-2, wild-type (Wuhan-Hu-1), UniProt P0DTC2).
T1 construct: also called full-length S-protein; full-length Spike protein; source: CHO Express cells, cell medium purified by Ni-IMAC; not shown: His-tag, C-terminal, kept
The experiment in a line: BLI. The settings on record: both partners purified.

B1: Nb20 nanobody (VHH)
VHH: QVQLVESGGGLVQAGGSLRLSCAVSGAGAHRVGWFRRAPGKEREFVAAIGASGGMTNYLDSVKGRFTISRDNAKNTIYLQMNSLKPQDTAVYYCAARDIETAEYIYWGQGTQVTVSS
notes: not shown: ecotin, N-terminal, cleaved; His-tag, N-terminal, cleaved
With B1, the Kd was about 1 nM.
